# According to the supplement of paper PMC10065799, “High-throughput profiling of sequence recognition by tyrosine kinases and SH2 domains using bacterial peptide display” (eLife, 2023):
# What was measured:
# EPHB2 = EPHB2 (UniProt P29323); assay: phosphorylation enrichment, bacterial display (enrichment ratio); higher = better substrate or ligand; peptides without Tyr show the background
# FGFR1 = FGFR1 (UniProt P11362); assay: as above
# FGFR3 = FGFR3 (UniProt P22607); assay: as above
# AncSZ = assay: as above
# Hck = Hck (UniProt P08631); assay: as above
# Chain of Hck (P08631 whole entry, looked up): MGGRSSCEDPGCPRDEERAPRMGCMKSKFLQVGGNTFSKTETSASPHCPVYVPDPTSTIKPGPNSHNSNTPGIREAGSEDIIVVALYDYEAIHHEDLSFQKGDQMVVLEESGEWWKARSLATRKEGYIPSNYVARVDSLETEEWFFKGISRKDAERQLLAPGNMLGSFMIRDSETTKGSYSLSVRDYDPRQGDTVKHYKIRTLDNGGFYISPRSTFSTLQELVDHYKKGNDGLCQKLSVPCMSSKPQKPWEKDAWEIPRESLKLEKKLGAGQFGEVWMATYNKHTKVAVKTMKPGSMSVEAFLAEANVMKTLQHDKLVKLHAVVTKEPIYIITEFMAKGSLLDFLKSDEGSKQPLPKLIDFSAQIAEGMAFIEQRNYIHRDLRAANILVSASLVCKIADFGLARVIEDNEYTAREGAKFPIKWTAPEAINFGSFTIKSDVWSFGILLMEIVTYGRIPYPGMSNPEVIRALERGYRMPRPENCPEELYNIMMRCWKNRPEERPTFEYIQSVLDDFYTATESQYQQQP
# EPHB1 = EPHB1 (UniProt P54762); assay: as above
# Jak2 = Jak2 (UniProt O60674); assay: as above
# Fer (mouse) = assay: as above
# MERTK = MERTK (UniProt Q12866); assay: as above
# Chain of MERTK (Q12866 whole entry, looked up): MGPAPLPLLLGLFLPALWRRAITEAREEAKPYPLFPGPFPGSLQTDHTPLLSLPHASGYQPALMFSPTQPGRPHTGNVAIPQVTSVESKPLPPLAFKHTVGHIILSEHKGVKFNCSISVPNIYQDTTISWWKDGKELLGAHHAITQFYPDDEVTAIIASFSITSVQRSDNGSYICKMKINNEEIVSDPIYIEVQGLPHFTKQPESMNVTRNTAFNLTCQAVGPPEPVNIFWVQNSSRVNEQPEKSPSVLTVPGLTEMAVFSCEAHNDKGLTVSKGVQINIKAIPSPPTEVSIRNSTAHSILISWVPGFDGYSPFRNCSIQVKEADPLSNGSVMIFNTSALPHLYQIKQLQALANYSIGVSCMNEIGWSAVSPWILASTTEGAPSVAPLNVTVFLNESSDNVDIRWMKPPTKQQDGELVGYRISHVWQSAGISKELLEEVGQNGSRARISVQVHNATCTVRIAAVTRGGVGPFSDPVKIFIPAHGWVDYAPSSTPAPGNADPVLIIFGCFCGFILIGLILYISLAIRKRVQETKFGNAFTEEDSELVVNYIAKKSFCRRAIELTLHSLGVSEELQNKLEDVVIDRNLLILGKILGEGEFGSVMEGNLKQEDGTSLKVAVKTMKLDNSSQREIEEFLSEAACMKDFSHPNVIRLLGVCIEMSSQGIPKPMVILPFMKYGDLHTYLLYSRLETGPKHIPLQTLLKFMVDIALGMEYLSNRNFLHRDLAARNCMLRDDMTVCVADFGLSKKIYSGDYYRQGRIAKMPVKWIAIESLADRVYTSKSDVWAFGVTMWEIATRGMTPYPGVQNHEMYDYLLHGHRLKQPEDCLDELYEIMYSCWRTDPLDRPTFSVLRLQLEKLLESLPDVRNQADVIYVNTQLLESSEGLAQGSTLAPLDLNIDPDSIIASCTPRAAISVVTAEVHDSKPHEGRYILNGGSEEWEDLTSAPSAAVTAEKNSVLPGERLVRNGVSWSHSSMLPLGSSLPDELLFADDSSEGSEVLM
# c-Src = assay: as above
# Fes = Fes (UniProt P07332); assay: as above
# Chain of Fes (P07332 whole entry, looked up): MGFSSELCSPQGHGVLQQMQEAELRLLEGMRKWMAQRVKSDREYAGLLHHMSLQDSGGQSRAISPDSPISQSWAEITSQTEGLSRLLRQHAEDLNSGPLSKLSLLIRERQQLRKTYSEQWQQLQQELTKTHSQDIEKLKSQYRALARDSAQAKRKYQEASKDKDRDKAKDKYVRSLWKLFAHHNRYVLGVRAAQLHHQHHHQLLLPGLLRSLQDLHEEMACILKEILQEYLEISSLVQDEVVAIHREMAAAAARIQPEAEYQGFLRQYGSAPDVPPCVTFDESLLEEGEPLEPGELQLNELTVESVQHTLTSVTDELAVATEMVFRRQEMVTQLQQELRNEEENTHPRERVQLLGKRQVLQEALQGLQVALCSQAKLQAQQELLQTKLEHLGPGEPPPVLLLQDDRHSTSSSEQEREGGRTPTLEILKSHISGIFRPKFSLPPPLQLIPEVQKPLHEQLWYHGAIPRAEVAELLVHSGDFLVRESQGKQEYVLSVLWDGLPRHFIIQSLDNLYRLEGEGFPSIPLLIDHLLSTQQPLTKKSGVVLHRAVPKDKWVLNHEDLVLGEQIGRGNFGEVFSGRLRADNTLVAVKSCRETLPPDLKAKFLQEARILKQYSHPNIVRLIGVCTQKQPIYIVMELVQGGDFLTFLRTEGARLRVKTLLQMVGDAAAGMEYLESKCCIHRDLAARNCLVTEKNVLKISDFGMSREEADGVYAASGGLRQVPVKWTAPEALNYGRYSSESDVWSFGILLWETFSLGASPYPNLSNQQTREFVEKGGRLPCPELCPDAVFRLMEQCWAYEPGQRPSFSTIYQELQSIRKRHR
# Fyn = Fyn (UniProt P06241); assay: as above
# Chain of Fyn (P06241 whole entry, looked up): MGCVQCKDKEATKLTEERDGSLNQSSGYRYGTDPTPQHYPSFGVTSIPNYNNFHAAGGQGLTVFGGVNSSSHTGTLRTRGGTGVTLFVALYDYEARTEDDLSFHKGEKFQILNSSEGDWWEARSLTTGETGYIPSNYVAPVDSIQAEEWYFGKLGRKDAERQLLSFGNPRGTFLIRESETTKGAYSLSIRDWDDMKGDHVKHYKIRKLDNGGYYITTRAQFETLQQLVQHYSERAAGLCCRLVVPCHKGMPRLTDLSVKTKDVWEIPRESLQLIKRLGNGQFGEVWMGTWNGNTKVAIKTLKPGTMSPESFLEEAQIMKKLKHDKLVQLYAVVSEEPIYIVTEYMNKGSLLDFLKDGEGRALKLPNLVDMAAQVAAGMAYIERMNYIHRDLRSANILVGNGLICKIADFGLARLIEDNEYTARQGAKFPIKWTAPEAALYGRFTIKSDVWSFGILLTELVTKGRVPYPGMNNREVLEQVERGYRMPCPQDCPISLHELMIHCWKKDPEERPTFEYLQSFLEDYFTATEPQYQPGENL
# c-Abl (mouse) = assay: as above
# SHP2-C SH2 = assay: SH2 binding enrichment of the phosphorylated peptide, bacterial display (enrichment ratio); higher = better substrate or ligand; peptides without Tyr show the background
# Grb2 SH2 = Grb2 SH2 (UniProt P62993); assay: as above
# Chain of Grb2 SH2 (P62993 whole entry, looked up): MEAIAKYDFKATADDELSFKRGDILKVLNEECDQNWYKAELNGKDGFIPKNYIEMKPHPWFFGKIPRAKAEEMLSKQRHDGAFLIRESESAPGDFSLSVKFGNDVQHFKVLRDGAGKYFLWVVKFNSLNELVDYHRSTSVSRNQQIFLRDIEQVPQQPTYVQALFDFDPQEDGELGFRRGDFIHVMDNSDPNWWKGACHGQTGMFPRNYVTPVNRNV
# c-Src SH2 = assay: as above
# 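Wherever SH2 binding enrichment of the phosphorylated peptide, bacterial display is given: peptide library displayed on the E. coli surface as eCPX fusions, selected cells deep-sequenced, score is each peptide's frequency after selection divided by its frequency in the input.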
# 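Wherever phosphorylation enrichment, bacterial display is given: 11-residue human phosphosite peptides and single-mutation variants displayed on the E. coli surface, counted by deep sequencing, each peptide's frequency after selection divided by its frequency in the unselected input library; frequency after pTyr selection over input frequency; kinase dosed for 20-30% of maximal phosphorylation in three min.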
# Chain of FGFR3 (P22607 whole entry, looked up): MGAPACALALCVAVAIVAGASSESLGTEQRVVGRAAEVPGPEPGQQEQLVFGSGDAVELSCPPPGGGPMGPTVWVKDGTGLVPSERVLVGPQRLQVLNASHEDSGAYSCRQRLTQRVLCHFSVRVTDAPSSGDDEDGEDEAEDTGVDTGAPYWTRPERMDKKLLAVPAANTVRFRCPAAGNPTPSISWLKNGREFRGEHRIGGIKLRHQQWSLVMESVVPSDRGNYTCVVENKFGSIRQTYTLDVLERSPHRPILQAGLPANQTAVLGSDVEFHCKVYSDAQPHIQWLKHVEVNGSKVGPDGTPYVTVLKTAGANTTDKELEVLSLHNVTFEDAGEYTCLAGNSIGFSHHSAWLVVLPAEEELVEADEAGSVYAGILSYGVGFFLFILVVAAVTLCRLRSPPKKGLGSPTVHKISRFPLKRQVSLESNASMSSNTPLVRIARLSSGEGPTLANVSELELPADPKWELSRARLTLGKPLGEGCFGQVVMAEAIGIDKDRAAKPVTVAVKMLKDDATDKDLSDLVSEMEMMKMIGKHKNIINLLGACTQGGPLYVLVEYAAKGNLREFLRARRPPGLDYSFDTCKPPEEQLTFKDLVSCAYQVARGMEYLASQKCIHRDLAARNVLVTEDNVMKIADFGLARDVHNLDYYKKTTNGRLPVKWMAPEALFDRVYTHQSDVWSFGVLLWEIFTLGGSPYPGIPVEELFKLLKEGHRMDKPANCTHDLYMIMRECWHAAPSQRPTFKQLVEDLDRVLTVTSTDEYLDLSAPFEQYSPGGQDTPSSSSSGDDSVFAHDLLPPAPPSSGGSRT
# Chain of FGFR1 (P11362 whole entry, looked up): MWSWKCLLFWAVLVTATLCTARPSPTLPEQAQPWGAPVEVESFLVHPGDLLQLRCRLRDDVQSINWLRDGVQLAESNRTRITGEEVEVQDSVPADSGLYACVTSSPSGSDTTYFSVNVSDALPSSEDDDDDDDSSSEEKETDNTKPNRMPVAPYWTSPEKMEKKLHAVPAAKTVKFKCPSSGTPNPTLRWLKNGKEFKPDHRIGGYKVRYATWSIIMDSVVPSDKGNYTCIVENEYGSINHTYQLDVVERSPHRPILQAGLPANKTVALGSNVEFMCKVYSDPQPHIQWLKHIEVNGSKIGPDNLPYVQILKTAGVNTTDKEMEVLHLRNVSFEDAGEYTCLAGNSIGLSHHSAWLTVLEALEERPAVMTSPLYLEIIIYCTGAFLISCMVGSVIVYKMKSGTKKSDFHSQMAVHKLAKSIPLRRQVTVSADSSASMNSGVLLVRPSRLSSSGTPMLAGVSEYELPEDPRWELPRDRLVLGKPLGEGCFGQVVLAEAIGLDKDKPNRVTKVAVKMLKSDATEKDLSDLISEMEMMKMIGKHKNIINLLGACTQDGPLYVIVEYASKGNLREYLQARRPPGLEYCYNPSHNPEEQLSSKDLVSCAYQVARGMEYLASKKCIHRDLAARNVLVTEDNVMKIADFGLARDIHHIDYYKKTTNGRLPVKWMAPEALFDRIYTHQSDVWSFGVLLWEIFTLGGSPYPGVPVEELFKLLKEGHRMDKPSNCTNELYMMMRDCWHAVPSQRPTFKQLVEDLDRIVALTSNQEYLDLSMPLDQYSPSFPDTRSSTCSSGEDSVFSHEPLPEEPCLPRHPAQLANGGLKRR
Sequence,phosphorylation enrichment (EPHB2),phosphorylation enrichment (FGFR1),phosphorylation enrichment (FGFR3),phosphorylation enrichment (AncSZ),phosphorylation enrichment (Hck),phosphorylation enrichment (EPHB1),phosphorylation enrichment (Jak2),phosphorylation enrichment (Fer (mouse)),phosphorylation enrichment (MERTK),phosphorylation enrichment (c-Src),phosphorylation enrichment (Fes),phosphorylation enrichment (Fyn),phosphorylation enrichment (c-Abl (mouse)),SH2 binding enrichment (SHP2-C SH2),SH2 binding enrichment (Grb2 SH2),SH2 binding enrichment (c-Src SH2)
EAVSIYQFFGQ [CBLC_Y402_H405Y_YF],5.73,3.15,2.67,1.74,7.12,11.2,1.34,8.72,9.29,6.58,1.36,7.8,6.44,0.881,0.921,0.654
ECKLLYSRKEG [PTPN11_Y263],0.513,0.487,0.554,0.855,0.564,0.436,0.647,0.465,0.483,0.425,0.754,0.446,0.77,1.09,1.02,0.616
EEGEEYGGGGG [TUBA1A_Y451],0.769,0.604,0.701,1.19,0.602,0.638,0.946,0.552,0.485,0.531,1.32,0.557,0.815,0.744,0.97,0.6
EEGESDVCSSD [DCX_Y125_Y125D],0.507,0.497,0.544,1.04,0.457,0.525,0.797,0.479,0.495,0.518,0.939,0.505,0.621,0.924,0.922,0.699
EEGNPYYSSAR [MCCC2_Y520],0.473,0.468,0.647,1.09,1.18,0.499,0.848,0.528,0.422,1.99,0.845,0.793,0.679,0.674,0.818,2.06
EEGNPYYSSTR [MCCC2_Y520_A524T],0.531,0.672,0.74,1.1,1.25,0.595,0.693,0.722,0.428,1.44,1.1,0.921,0.67,1.15,0.82,1.22
EEKKKYYDAKI [CASP5_Y103_T106A],0.432,0.529,0.518,0.626,0.411,0.467,0.848,0.447,0.429,0.396,0.764,0.371,0.565,1.02,1.28,0.521
EFKDAYKFAAD [BRDT_Y335_YF],0.491,0.414,0.524,0.647,0.429,0.367,0.638,0.408,0.492,0.447,0.731,0.414,0.459,0.779,0.7,0.459
EFKDAYTFAAD [BRDT_Y335_K336T_YF],0.519,0.508,0.606,1.09,0.57,0.452,0.835,0.477,0.456,1.36,0.959,0.63,0.647,0.713,0.813,0.703
EFKKHYGYSLY [ANXA3_Y295],0.39,0.471,0.38,0.531,0.727,0.367,0.555,0.353,0.401,0.598,0.611,0.433,0.541,1.51,1.31,1.57
EGDGVYTLNNE [HP_Y125],0.633,0.595,0.822,1.26,3.07,0.602,0.934,0.658,0.509,4.26,1.16,6.33,0.817,0.709,0.828,0.403
EGNEQYEGYCV [GRIA3_Y451_R450Q],0.592,0.557,0.691,1.19,0.604,0.556,0.942,1.11,0.422,0.506,1.05,0.567,1.26,0.768,1.01,1.23
EHIEFYELDKK [PMM2_Y145_R141H],0.492,0.487,0.571,1.01,0.445,0.4,0.746,0.456,0.514,1.11,1.1,0.566,0.588,0.632,0.688,0.559
EILLSYLRTGF [TGM1_Y365_YF],0.967,0.433,0.619,1.05,0.41,0.418,0.981,0.411,0.387,0.394,0.943,0.401,0.492,0.974,1.26,0.64
EKKKKYMLPLD [DNM2_Y563_E560K],0.469,0.5,0.506,0.594,0.452,0.52,0.567,0.502,0.504,0.496,0.951,0.604,0.691,0.436,0.762,0.522
ELAKYYKLHHI [AK7_Y391_N389K],0.562,0.516,0.677,0.884,0.393,0.589,0.987,0.461,0.376,0.478,0.827,0.41,0.665,0.93,0.961,0.748
ELPEKYSQNIC [PKP2_Y626_Y631C],0.605,0.518,0.599,1.01,0.533,0.538,1.18,0.446,0.544,0.579,1.12,0.497,0.956,0.703,0.997,0.493

Sequence,phosphorylation enrichment (EPHB2),phosphorylation enrichment (FGFR1),phosphorylation enrichment (FGFR3),phosphorylation enrichment (AncSZ),phosphorylation enrichment (Hck),phosphorylation enrichment (EPHB1),phosphorylation enrichment (Jak2),phosphorylation enrichment (Fer (mouse)),phosphorylation enrichment (MERTK),phosphorylation enrichment (c-Src),phosphorylation enrichment (Fes),phosphorylation enrichment (Fyn),phosphorylation enrichment (c-Abl (mouse)),SH2 binding enrichment (SHP2-C SH2),SH2 binding enrichment (Grb2 SH2),SH2 binding enrichment (c-Src SH2)
ELTAKYLNFFQ [P3H4_Y181_YF],0.479,0.438,0.681,0.871,0.396,0.564,0.908,0.517,0.385,0.454,1.05,0.458,0.765,1.16,3.9,0.562
ELTTCYRKKCC [CCBE1_Y70],0.48,0.485,0.507,0.817,0.396,0.441,0.652,0.393,0.413,0.379,0.785,0.444,0.559,0.873,1.02,0.741
EMTAEYTCTRK [ACAD9_Y325_A326T],0.607,0.654,0.636,1.14,0.699,0.674,0.757,0.513,0.465,0.477,0.974,0.624,0.636,0.638,0.632,0.41
ENAGYYFQVSA,0.566,0.94,1.06,1.17,0.448,0.578,1.43,0.595,0.602,0.444,1.37,0.527,0.603,0.884,0.953,0.691
ENKGVYVLMSG [IVD_Y277],0.626,2.5,1.79,1.2,0.518,0.727,1.23,0.599,1.13,0.788,1.26,0.561,0.739,0.892,0.987,3.06
ENKGVYVPMSG [IVD_Y277_L279P],0.383,0.48,0.531,0.599,0.519,0.411,0.517,0.405,0.451,0.449,0.559,0.367,0.503,0.445,0.734,3.41
ETCLAYREKRI [TEKT1_Y118],0.519,0.61,0.558,1.07,0.49,0.466,0.693,0.371,0.508,0.423,0.956,0.536,0.503,0.742,0.948,0.611
ETKKQYDSFTF [TMED3_Y85_YF],0.397,0.411,0.643,0.7,0.457,0.422,0.76,0.407,0.424,0.564,0.9,0.517,0.681,0.609,0.79,0.513
ETLLFYGCRRS [POR_Y564_YF],0.458,0.621,0.445,0.749,0.463,0.468,0.659,0.465,0.424,0.563,0.675,0.43,0.82,0.582,0.66,0.299
ETLLYYGCRRS [POR_Y564],0.506,0.795,0.71,0.959,5.24,0.63,1.67,0.638,1.18,3.48,0.897,1.89,0.883,0.767,0.712,0.466
ETSHNYHKFDS [MATR3_Y243],0.451,0.393,0.475,0.463,0.395,0.416,0.662,0.372,0.393,0.475,0.551,0.401,0.61,0.881,0.623,1.11
EVASVYESFQP [MAVS_Y92_Q93E_YF],1.01,0.668,0.852,1.91,8.64,1.1,1.65,14,3.2,8.96,1.31,11.2,1.56,0.475,0.783,0.561
EVEFEYPFRLH [SYP_Y73],0.584,0.42,0.724,1,0.509,0.564,1.5,0.489,0.396,0.588,1.37,0.336,0.735,0.899,0.892,0.755
EVKEAYMGNVL [ACAT1_Y90],0.593,0.596,0.505,0.804,0.42,0.341,0.626,0.528,0.444,0.402,0.848,0.474,0.506,0.699,0.881,0.542
EVVGRYSVHFA [MLH1_Y183_N187Y_YF],0.49,0.529,0.676,0.92,0.504,0.612,0.692,0.424,0.448,0.436,0.978,0.579,0.531,0.798,0.909,0.532
EYGRRYGFSCQ [CCDC93_Y209_R213C],0.594,0.526,0.696,0.931,0.617,0.59,1.2,0.526,0.476,0.483,1.12,0.53,0.881,0.492,0.725,0.418
